Measurements published in paper PMC9019252.

B1: A7 (ssRNA)
RNA: AAAAAAA
B2: A12 (ssRNA)
RNA: AAAAAAAAAAAA
B3: A24 (ssRNA)
RNA: AAAAAAAAAAAAAAAAAAAAAAAA

Key:
PABPC1 RRM2 = PABPC1 RRM2 (human, UniProt P11940 100-190); assay: ITC
PABPC1 RRM3 = PABPC1 RRM3 (human, UniProt P11940 191-289); assay: ITC
PABPC1 RRM2/3 = PABPC1 RRM2/3 (human, UniProt P11940 100-289); assay: ITC
PABPC1 RRM1 = PABPC1 RRM1 (human, UniProt P11940 1-99); assay: ITC
PABPC1 RRM4 = PABPC1 RRM4 (human, UniProt P11940 290-371); assay: ITC
Chain of PABPC1 RRM4 (P11940 290-371): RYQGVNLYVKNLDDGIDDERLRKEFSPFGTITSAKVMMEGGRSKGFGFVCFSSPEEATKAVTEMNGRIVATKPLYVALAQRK

PABPC1 (full length) = PABPC1 (full length) (human, UniProt P11940 1-636); assay: SPR
Chain of PABPC1 (full length) (P11940 whole entry): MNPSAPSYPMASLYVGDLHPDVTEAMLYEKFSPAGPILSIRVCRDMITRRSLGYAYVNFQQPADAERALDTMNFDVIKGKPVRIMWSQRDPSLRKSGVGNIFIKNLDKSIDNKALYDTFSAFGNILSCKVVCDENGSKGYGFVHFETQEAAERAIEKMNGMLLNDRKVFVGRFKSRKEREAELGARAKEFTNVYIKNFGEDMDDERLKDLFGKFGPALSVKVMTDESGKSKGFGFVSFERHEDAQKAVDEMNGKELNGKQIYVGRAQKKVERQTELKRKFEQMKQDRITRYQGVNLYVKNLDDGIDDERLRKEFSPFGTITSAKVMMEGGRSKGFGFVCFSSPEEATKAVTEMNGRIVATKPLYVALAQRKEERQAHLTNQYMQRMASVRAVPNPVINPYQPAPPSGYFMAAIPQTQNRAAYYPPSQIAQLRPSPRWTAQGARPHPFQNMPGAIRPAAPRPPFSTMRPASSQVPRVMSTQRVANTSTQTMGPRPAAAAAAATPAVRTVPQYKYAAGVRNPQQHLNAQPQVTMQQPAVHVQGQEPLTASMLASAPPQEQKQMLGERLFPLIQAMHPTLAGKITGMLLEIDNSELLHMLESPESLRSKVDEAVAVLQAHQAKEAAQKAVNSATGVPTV

PABPC1 RRM1/2/3/4 = PABPC1 RRM1/2/3/4 (human, UniProt P11940 1-370); assay: SPR
Chain of PABPC1 RRM1/2/3/4 (P11940 1-370): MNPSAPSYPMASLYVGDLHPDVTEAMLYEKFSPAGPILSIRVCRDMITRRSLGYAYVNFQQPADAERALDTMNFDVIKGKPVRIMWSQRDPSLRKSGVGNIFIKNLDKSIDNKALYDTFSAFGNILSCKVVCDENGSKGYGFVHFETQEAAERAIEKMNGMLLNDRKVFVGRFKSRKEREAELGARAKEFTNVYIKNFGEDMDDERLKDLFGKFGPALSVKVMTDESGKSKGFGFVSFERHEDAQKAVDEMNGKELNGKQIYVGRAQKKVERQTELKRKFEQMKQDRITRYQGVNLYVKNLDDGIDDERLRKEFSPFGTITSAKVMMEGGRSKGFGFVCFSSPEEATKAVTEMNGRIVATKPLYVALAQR

Chain of PABPC1 RRM2 (P11940 100-190): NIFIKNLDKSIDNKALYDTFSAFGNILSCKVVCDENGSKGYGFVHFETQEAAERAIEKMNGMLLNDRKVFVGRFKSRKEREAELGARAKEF
Chain of PABPC1 RRM2/3 (P11940 100-289): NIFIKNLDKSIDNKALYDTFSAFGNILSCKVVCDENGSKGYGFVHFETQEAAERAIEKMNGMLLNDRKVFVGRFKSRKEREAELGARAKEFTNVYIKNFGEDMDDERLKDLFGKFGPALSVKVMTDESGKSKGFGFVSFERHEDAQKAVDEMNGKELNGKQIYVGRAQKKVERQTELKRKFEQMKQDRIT
Chain of PABPC1 RRM1 (P11940 1-99): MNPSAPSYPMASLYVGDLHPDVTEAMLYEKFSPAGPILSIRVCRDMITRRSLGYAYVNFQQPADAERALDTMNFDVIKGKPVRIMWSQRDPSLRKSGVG
Chain of PABPC1 RRM3 (P11940 191-289): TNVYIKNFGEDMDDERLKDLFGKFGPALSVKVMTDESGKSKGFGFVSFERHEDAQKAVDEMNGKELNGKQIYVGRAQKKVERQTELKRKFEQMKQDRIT

Binder | Kd (PABPC1 RRM2) [µM] | Kd (PABPC1 RRM3) [µM] | Kd (PABPC1 RRM2/3) [µM] | binding result (PABPC1 RRM1) | binding result (PABPC1 RRM4) | binding result (PABPC1 (full length)) | binding result (PABPC1 RRM1/2/3/4)
B1 | 200 ± 40 | 4.7 ± 0.3 | 0.71 ± 0.1 | no binding | no binding |  | 
B2 | 70 ± 3 |  | 0.0013 ± 0.0006 |  |  |  | 
B3 |  |  |  |  |  | binds | binds
